Patent publication US20150299277A1 (published 2015)

B1: Myc- and His-tagged C-terminal domain human PTX3 (animal cell expressed) (other)
chain: CETAILFPMRSKKIFGSVHPVRPMRLESFSACIWVKATDVLNKTILFSYGTKRNPYEIQLYLSYQSIVFVVGGEENKLVAEAMVSLGRWTHLCGTWNSEEGLTSLWVNGELAATTVEMATGHIVPEGGILQIGQEKNGCCVGGGFDETLAFSGRLTGFNIWDSVLSNEEIRETGGAESCHIRGNIVGWGVTEIQPHGGAQYVS
B2: Escherichia coli-expressed N-terminal domain human PTX3 wherein the 47th, 49th, 103rd cysteine residues were replaced with serine residue (other)
chain: ENLYFQGENSDDYDLMYVNLDNEIDNGLHPTEDPTPSDSGQEHSEWDKLFIMLENSQMRERMLLQATDDVLRGELQRLREELGRLAESLARPSAPGAPAEARLTSALDELLQATRDAGRRLARMEGAEAQRPEEAGRALAAVLEELRQTRADLHAVQGWAARSWLPAG

Columns and labels:
[1] = biological target: T1, recombinant human histone H4 (UniProt P62805 2-103); experiment: SPR; EDTA/EGTA
[2] = biological target: T2, recombinant human histone H3 (UniProt P68431 2-136); experiment: SPR; EDTA/EGTA
[3] = biological target: T1, recombinant human histone H4; experiment: SPR; Ca2+
[4] = biological target: T2, recombinant human histone H3; experiment: SPR; Ca2+
[5] = biological target: recombinant human histone H2B (human); experiment: SPR; Ca2+

Binder	Kd [1]	Kd [2]	Kd [3]	Kd [4]	Kd [5]
B1	322 nM	4.77 nM	1.04 nM	5.64 nM	–
B2	–	1.95 nM	1.21 nM	0.354 nM	10.9 nM
